Test results taken from US20150267232A1, “IN VIVO AND IN VITRO CARBENE INSERTION AND NITRENE TRANSFER REACTIONS CATALYZED BY HEME ENZYMES” (California Institute of Technology, priority 2012, published 2015).

Tests used:
[1] = Small-scale anaerobic C—H amination with purified enzymes, azide 1; format: biochemical; conditions: benzosultam 3
Procedure: Activities are presented in TTN. […] Yields and enantioselectivies determined by HPLC analysis. * (S−R)/(S+R). nd=not determined.
Enzymes used as purified catalysts were expressed as previously described (Lewis, J. C. et al., Proc. Natl. Acad. Sci. U.S.A. 106, 16550-16555 (2009)), and were purified by anion-exchange chromatography (for holoenzymes) or Ni-NTA chromatography (for isolated heme domains). Concentrations of P450 or P411 enzymes were determined as previously reported (Omura, T. & Sato, R., J. Biol. Chem. 239, 2370-2378 (1964); Vatsis, K. P. et al., J. Inorg. Biochem. 91, 542-553 (2002)). Small-scale reactions (400 μL) were conducted in 2 mL crimp vials containing degassed buffer (0.1 M potassium phosphate pH 8.0), enzyme (0.1-0.5% catalyst loading) and oxygen depletion system (10× stock solution containing 14,000 U/mL catalase, 1,000 U/mL glucose oxidase dissolved in 0.1 M KPi pH 8.0). Enzyme (P450 or P411) solution and oxygen depletion mixture were added to the vial with a small stir bar before crimp-sealing. […] Reactions were stirred at room temperature for 24 h under positive argon pressure.
Small-scale reactions (400 μL) were conducted in 2 mL crimp vials (Agilent Technologies, San Diego, Calif.) containing buffer (0.1 M potassium phosphate pH 8.0), enzyme (0.1-0.5% catalyst loading) and oxygen depletion system (10× stock solution containing 14,000 U/mL catalase, 1,000 U/mL glucose oxidase dissolved in 0.1 M KPi pH 8.0). Enzyme (P450 or P411) solution and oxygen depletion mixture were added to the vial with a small stir bar before crimp-sealing. […] In the meantime, the headspace of the sealed 2 mL reaction vial with the P450 solution was made anaerobic by flushing argon over the protein solution (with no bubbling). The buffer/reductant/glucose solution (270 μL) was syringed into the reaction vial with continuous argon purge of the vial headspace. An arylsulfonyl azide solution in DMSO (10 μL, 80 mM) was added to the reaction vial via a glass syringe, and the reaction was left stirring for 24 h at room temperature under positive argon pressure. […] Reactions were quenched by adding 30 μL 3 M HCl under argon. To the vials were then added acetonitrile (430 uL) and internal standard (o-toluenesulfonamide 10 mM in 50% acetonitrile 50% water, 1 mM final concentration). This mixture was then transferred to a microcentrifuge tube, and centrifuged at 17,000×g for 10 minutes. A portion (20 μL) of the supernatant was then analyzed by HPLC. For LC-MS analysis, the quenched reaction mixture was extracted twice with ethyl acetate (2×350 μL), dried under a light argon stream and resuspended in 50% water-acetonitrile (100 μL). For chiral HPLC the reactions were extracted as above with ethyl acetate, dried and resuspended in DMSO (100 μL) and then C18 purified as described above. The C18 purified material was dried, and resuspended in acetonitrile, and then injected onto the chiral HPLC system for analysis. Sultam formation was quantified comparison of integrated peak areas of internal standard and sultam at 220 nm to a calibration curve made using synthetically produced sultam and internal standard.
Purified enzymes were screened for activity in small scale reactions (400 μL) under anaerobic conditions as described above. Reactions were carried out using 0.5% mol of enzyme (10 μM) with respect to the triethylsulfonyl azide substrate 1 (2 mM). Standard reaction conditions described above were employed. Diethyl benzosultam product 3 (FIG. 18) was analyzed and quantified by reversed-phase HPLC (see above).
Small-scale reactions (400 μL total volume) were set up and worked up. Control reactions were performed with both the holoenzyme (BM3 with covalently linked reductase domain) and the isolated heme domain. […] Reactions of the complete system with heme domain (CS heme) included 2 mM Na2S2O4 rather than NADPH unless otherwise indicated in the table. […]

[2] = P450BM3 compilation plate screen (GC, cyclopropane peaks); format: biochemical; conditions: for ee (cis): (R,S)-(S,R); for Absolute activity: sum of the area of the cyclopropane peaks over the area of the internal standard
[3] = chiral β-CDX GC, P450BM3 variants
[4] = diastereomeric excess = ([cis] − [trans])/([cis] + [trans]), P450BM3 variants

B1: ABC-CIS-A268T: BM3-CIS + C400S + A268T (9-10A TS + F87V, C400S) (protein, listed as Bacillus megaterium)
chain: TIKEMPQPKTFGELKNLPLLNTDKPVQALMKIADELGEIFKFEAPGRVTRYLSSQRLIKEACDESRFDKNLSQALKFARDFAGDGLVTSWTHEKNWKKAHNILLPSFSQQAMKGYHAMMVDIAVQLVQKWERLNADEHIEVSEDMTRLTLDTIGLCGFNYRFNSFYRDQPHPFIISMVRALDEVMNKLQRANPDDPAYDENKRQFQEDIKVMNDLVDKIIADRKARGEQSDDLLTQMLNGKDPETGEPLDDGNIRYQIITFLIAGHETTSGLLSFALYFLVKNPHVLQKVAEEAARVLVDPVPSYKQVKQLKYVGMVLNEALRLWPTAPAFSLYAKEDTVLGGEYPLEKGDEVMVLIPQLHRDKTVWGDDVEEFRPERFENPSAIPQHAFKPFGNGQRASIGQQFALHEATLVLGMMLKHFDFEDHTNYELDIKETLTLKPKGFVVKAKSKKIPLGGIPSPSTEQSAKKVRKKAENAHNTPLLVLYGSNMGTAEGTARDLADIAMSKGFAPQVATLDSHAGNLPREGAVLIVTASYNGHPPDNAKQFVDWLDQASADEVKGVRYSVFGCGDKNWATTYQKVPAFIDETLAAKGAENIADRGEADASDDFEGTYEEWREHMWSDVAAYFNLDIENSEDNKSTLSLQFVDSAADMPLAKMHGAFSTNVVASKELQQPGSARSTRHLEIELPKEASYQEGDHLGVIPRNYEGIVNRVTARFGLDASQQIRLEAEEEKLAHLPLAKTVSVEELLQYVELQDPVTRTQLRAMAAKTVCPPHKVELEALLEKQAYKEQVLAKRLTMLELLEKYPACEMKFSEFIALLPSIRPRYYSISSSPRVDEKQASITVSVVSGEAWSGYGEYKGIASNYLAELQEGDTITCFISTPQSEFTLPKDPETPLIMVGPGTGVAPFRGFVQARKQLKEQGQSLGEAHLYFGCRSPHEDYLYQEELENAQSEGIITLHTAFSRMPNQPKTYVQHVMEQDGKKLIELLDQGAHFYICGDGSQMAPAVEATLMKSYADVHQVSEADARLWLQQLEEKGRYAKDVWAG
modifications: cytochrome P450NADPH-P-450 reductase precursor, cytochrome P450 (BM3), CYP102A1
[1]; 0.1 mol % catalyst loading (2 μM), 2 mM azide 1, 2 mM NADPH
  TTN: 82
[1]; 0.1 mol % catalyst loading, (S−R)/(S+R)
  % ee: 47%

B2: WT F87A: P450BM3 variant: F87A (protein, listed as Bacillus megaterium)
chain: TIKEMPQPKTFGELKNLPLLNTDKPVQALMKIADELGEIFKFEAPGRVTRYLSSQRLIKEACDESRFDKNLSQALKFVRDFAGDGLATSWTHEKNWKKAHNILLPSFSQQAMKGYHAMMVDIAVQLVQKWERLNADEHIEVPEDMTRLTLDTIGLCGFNYRFNSFYRDQPHPFITSMVRALDEAMNKLQRANPDDPAYDENKRQFQEDIKVMNDLVDKIIADRKASGEQSDDLLTHMLNGKDPETGEPLDDENIRYQIITFLIAGHETTSGLLSFALYFLVKNPHVLQKAAEEAARVLVDPVPSYKQVKQLKYVGMVLNEALRLWPTAPAFSLYAKEDTVLGGEYPLEKGDELMVLIPQLHRDKTIWGDDVEEFRPERFENPSAIPQHAFKPFGNGQRACIGQQFALHEATLVLGMMLKHFDFEDHTNYELDIKETLTLKPEGFVVKAKSKKIPLGGIPSPSTEQSAKKVRKKAENAHNTPLLVLYGSNMGTAEGTARDLADIAMSKGFAPQVATLDSHAGNLPREGAVLIVTASYNGHPPDNAKQFVDWLDQASADEVKGVRYSVFGCGDKNWATTYQKVPAFIDETLAAKGAENIADRGEADASDDFEGTYEEWREHMWSDVAAYFNLDIENSEDNKSTLSLQFVDSAADMPLAKMHGAFSTNVVASKELQQPGSARSTRHLEIELPKEASYQEGDHLGVIPRNYEGIVNRVTARFGLDASQQIRLEAEEEKLAHLPLAKTVSVEELLQYVELQDPVTRTQLRAMAAKTVCPPHKVELEALLEKQAYKEQVLAKRLTMLELLEKYPACEMKFSEFIALLPSIRPRYYSISSSPRVDEKQASITVSVVSGEAWSGYGEYKGIASNYLAELQEGDTITCFISTPQSEFTLPKDPETPLIMVGPGTGVAPFRGFVQARKQLKEQGQSLGEAHLYFGCRSPHEDYLYQEELENAQSEGIITLHTAFSRMPNQPKTYVQHVMEQDGKKLIELLDQGAHFYICGDGSQMAPAVEATLMKSYADVHQVSEADARLWLQQLEEKGRYAKDVWAG
modifications: cytochrome P450NADPH-P-450 reductase precursor, cytochrome P450 (BM3), CYP102A1
[2]; chimeric P450s
  ee (cis): 56
  Absolute activity: 0.001704
[2]; [3]
  ee (cis): 57
[2]; ([cis] − [trans])/([cis] + [trans]), chimeric P450s
  de: −28
[2]; [4]
  de: −28
[2]; P450BM3 variants
  Absolute activity: 0.001704

B3: WT T88L: P450BM3 variant: T88L (protein, listed as Bacillus megaterium)
chain: TIKEMPQPKTFGELKNLPLLNTDKPVQALMKIADELGEIFKFEAPGRVTRYLSSQRLIKEACDESRFDKNLSQALKFVRDFAGDGLFLSWTHEKNWKKAHNILLPSFSQQAMKGYHAMMVDIAVQLVQKWERLNADEHIEVPEDMTRLTLDTIGLCGFNYRFNSFYRDQPHPFITSMVRALDEAMNKLQRANPDDPAYDENKRQFQEDIKVMNDLVDKIIADRKASGEQSDDLLTHMLNGKDPETGEPLDDENIRYQIITFLIAGHETTSGLLSFALYFLVKNPHVLQKAAEEAARVLVDPVPSYKQVKQLKYVGMVLNEALRLWPTAPAFSLYAKEDTVLGGEYPLEKGDELMVLIPQLHRDKTIWGDDVEEFRPERFENPSAIPQHAFKPFGNGQRACIGQQFALHEATLVLGMMLKHFDFEDHTNYELDIKETLTLKPEGFVVKAKSKKIPLGGIPSPSTEQSAKKVRKKAENAHNTPLLVLYGSNMGTAEGTARDLADIAMSKGFAPQVATLDSHAGNLPREGAVLIVTASYNGHPPDNAKQFVDWLDQASADEVKGVRYSVFGCGDKNWATTYQKVPAFIDETLAAKGAENIADRGEADASDDFEGTYEEWREHMWSDVAAYFNLDIENSEDNKSTLSLQFVDSAADMPLAKMHGAFSTNVVASKELQQPGSARSTRHLEIELPKEASYQEGDHLGVIPRNYEGIVNRVTARFGLDASQQIRLEAEEEKLAHLPLAKTVSVEELLQYVELQDPVTRTQLRAMAAKTVCPPHKVELEALLEKQAYKEQVLAKRLTMLELLEKYPACEMKFSEFIALLPSIRPRYYSISSSPRVDEKQASITVSVVSGEAWSGYGEYKGIASNYLAELQEGDTITCFISTPQSEFTLPKDPETPLIMVGPGTGVAPFRGFVQARKQLKEQGQSLGEAHLYFGCRSPHEDYLYQEELENAQSEGIITLHTAFSRMPNQPKTYVQHVMEQDGKKLIELLDQGAHFYICGDGSQMAPAVEATLMKSYADVHQVSEADARLWLQQLEEKGRYAKDVWAG
modifications: cytochrome P450NADPH-P-450 reductase precursor, cytochrome P450 (BM3), CYP102A1
[2]; [3]
  ee (cis): 23
[2]; [4]
  de: −78
[2]; P450BM3 variants
  Absolute activity: 0.004522
